Measured values from US20190077860A1 (EISAI R AND D MANAGEMENT, published 2019).
Residue numbers refer to the chain shown, from its start.

T1: human EphA7 extracellular region-SEAP-His protein (human, UniProt Q15375 28-555)
T1 construct: extracellular domain; also called hEphA7-SEAP-His
T1 sequence (looked up): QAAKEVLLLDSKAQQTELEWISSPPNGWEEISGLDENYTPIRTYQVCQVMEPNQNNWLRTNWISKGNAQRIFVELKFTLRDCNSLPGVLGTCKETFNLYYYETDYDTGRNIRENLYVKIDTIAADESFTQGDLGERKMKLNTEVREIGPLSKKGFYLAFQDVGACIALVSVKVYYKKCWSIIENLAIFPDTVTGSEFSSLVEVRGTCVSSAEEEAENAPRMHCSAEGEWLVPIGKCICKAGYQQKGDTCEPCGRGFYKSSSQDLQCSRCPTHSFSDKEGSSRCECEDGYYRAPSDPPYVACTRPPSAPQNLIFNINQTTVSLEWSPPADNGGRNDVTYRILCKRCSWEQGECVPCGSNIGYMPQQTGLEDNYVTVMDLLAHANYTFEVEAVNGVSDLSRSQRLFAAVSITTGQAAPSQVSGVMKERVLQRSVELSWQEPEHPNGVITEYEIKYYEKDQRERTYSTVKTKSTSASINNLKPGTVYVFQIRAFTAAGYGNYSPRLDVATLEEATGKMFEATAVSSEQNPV

T2: human EphB1 extracellular region-SEAP-His protein (human, UniProt P54762 18-540)
T2 construct: extracellular domain; also called hEphB1-SEAP-His
T2 sequence (looked up): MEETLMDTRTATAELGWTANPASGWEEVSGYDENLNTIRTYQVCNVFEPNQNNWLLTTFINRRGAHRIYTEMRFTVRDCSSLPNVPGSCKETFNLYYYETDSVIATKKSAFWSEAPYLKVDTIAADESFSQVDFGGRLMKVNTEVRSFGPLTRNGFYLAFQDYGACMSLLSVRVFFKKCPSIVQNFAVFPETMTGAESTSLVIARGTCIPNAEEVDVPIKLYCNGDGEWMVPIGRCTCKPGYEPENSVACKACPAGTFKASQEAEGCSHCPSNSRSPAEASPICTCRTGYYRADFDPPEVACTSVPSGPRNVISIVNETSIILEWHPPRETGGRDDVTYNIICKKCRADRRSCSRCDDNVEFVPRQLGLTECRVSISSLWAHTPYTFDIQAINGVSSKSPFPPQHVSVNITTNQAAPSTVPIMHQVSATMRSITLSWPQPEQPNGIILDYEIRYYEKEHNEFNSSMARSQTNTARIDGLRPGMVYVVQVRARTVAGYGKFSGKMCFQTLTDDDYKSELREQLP

T3: human EphB4 extracellular region-SEAP-His protein (human, UniProt P54760 16-539)
T3 construct: extracellular domain; also called hEphB4-SEAP-His
T3 sequence (looked up): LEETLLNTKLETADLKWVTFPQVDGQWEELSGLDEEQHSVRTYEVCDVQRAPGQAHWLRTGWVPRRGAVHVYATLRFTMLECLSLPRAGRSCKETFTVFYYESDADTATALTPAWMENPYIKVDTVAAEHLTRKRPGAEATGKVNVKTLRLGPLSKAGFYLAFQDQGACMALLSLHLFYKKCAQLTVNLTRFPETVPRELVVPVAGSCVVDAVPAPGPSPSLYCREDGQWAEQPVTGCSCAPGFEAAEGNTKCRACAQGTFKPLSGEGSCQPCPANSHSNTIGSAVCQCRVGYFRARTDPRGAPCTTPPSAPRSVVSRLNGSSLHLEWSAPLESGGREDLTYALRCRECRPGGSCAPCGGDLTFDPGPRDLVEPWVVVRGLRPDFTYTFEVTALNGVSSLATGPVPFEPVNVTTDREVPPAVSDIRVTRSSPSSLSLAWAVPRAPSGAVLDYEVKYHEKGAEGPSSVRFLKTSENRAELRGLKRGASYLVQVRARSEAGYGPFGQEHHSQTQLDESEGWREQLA

T4: human EphB6 extracellular region-SEAP-His protein (human, UniProt O15197 32-594)
T4 construct: extracellular domain; also called hEphB6-SEAP-His
T4 sequence (looked up): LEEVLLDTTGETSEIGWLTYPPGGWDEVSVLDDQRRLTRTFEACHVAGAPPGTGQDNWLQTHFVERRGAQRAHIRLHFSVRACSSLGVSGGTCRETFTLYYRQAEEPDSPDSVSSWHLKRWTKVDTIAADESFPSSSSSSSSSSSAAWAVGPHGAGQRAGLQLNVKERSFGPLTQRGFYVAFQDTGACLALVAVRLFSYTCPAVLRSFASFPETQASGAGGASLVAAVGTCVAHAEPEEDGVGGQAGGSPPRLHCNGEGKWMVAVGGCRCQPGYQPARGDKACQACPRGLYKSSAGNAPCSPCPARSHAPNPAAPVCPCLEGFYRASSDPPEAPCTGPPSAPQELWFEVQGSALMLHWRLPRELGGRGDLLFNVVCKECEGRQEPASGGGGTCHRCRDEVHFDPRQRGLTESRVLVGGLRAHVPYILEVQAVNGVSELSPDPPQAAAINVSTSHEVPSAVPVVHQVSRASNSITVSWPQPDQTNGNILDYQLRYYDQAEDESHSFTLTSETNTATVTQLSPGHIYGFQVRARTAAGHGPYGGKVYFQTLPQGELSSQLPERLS

B1: humanized antibody No. 141 (antibody, human IgG2)
heavy: QVQLVQSGSELKKPGASVKVSCKASGYTFTDYSMHWVRQAPGQGLEWMGWINTETGEPTYADDFKGRFVFSLDTSVSTAYLQISSLKAEDTAVYYCARIPLYYYGSRYWYFDVWGQGTTVTVSSASTKGPSVFPLAPSSRSTSESTAALGCLVKDYFPEPVTVSWNSGALTSGVHTFPAVLQSSGLYSLSSVVTVPSSNFGTQTYTCNVDHKPSNTKVDKTVERKSCVECPPCPAPPAAAPSVFLFPPKPKDTLMISRTPEVTCVVVDVSHEDPEVQFNWYVDGVEVHNAKTKPREEQFNSTFRVVSVLTVVHQDWLNGKEYKCKVSNKGLPAPIEKTISKTKGQPREPQVYTLPPSREEMTKNQVSLTCLVKGFYPSDIAVEWESNGQPENNYKTTPPMLDSDGSFFLYSKLTVDKSRWQQGNVFSCSVMHEALHNHYTQKSLSLSPG
light: DIQMTQSPSSLSASVGDRVTITCRASENIYRNLAWYQQKPGKAPKLLVYAATNLADGVPSRFSGSGSGTDYTLTISSLQPEDFATYYCQHFWGTPWTFGQGTKVEIKRTVAAPSVFIFPPSDEQLKSGTASVVCLLNNFYPREAKVQWKVDNALQSGNSQESVTEQDSKDSTYSLSSTLTLSKADYEKHKVYACEVTHQGLSSPVTKSFNRGEC
notes: human Ig kappa; also called L1-4/HK1
B2: humanized antibody No. 134 (antibody, human IgG2)
heavy: B1 heavy with E46K, D62Q, D63G, K65T
light: EIVMTQSPATLSVSPGERATLSCRASENIYRNLAWYQQKPGQSPRLLIYAATNLADGIPARFSGSGSGTEYTLTISSLQSEDFAVYYCQHFWGTPWTFGQGTKVEIKRTVAAPSVFIFPPSDEQLKSGTASVVCLLNNFYPREAKVQWKVDNALQSGNSQESVTEQDSKDSTYSLSSTLTLSKADYEKHKVYACEVTHQGLSSPVTKSFNRGEC
notes: human Ig kappa; also called L2-4/HA2
B3: humanized antibody No. 156 (antibody, human IgG2)
heavy: B1 heavy with V2I, E46K, D62Q, D63G, K65T
light: B1 light with K45Q, V48L
notes: human Ig kappa; also called L1-6/HA4
B4: humanized antibody No. 152 (antibody, human IgG2)
heavy: B1 heavy with D62Q, D63G, K65T
light: B1 light with V48L, P80S
notes: human Ig kappa; also called L1-5/HA1
B5: humanized antibody No. 144 (antibody, human IgG2)
heavy: B1 heavy
light: B1 light with K45Q, V48L
notes: human Ig kappa; also called L1-6/HK1
B6: humanized antibody No. 145 (antibody, human IgG2)
heavy: B1 heavy with E46K
light: B1 light with V48L, P80S
notes: human Ig kappa; also called L1-5/HK2
B7: humanized antibody No. 143 (antibody, human IgG2)
heavy: B1 heavy with V2I, E46K
light: B1 light
notes: human Ig kappa; also called L1-4/HK4
B8: humanized antibody No. 157 (antibody, human IgG2)
heavy: B1 heavy with D62Q, D63G, K65T
light: B1 light with K45Q, V48L
notes: human Ig kappa; also called L1-6/HA1
B9: humanized antibody No. 159 (antibody, human IgG2)
heavy: B1 heavy with E46K
light: B1 light with K45Q, V48L
notes: human Ig kappa; also called L1-6/HK2
B10: humanized antibody No. 132 (antibody, human IgG2)
heavy: B1 heavy with V2I, E46K, D62Q, D63G, K65T
light: B2 light
notes: human Ig kappa; also called L2-4/HA4
B11: humanized antibody No. 158 (antibody, human IgG2)
heavy: B1 heavy with E46K, D62Q, D63G, K65T
light: B1 light with K45Q, V48L
notes: human Ig kappa; also called L1-6/HA2
B12: humanized antibody No. 160 (antibody, human IgG2)
heavy: B1 heavy with V2I, E46K
light: B1 light with K45Q, V48L
notes: human Ig kappa; also called L1-6/HK4
B13: humanized antibody No. 153 (antibody, human IgG2)
heavy: B1 heavy with E46K, D62Q, D63G, K65T
light: B1 light with V48L, P80S
notes: human Ig kappa; also called L1-5/HA2
B14: humanized antibody No. 151 (antibody, human IgG2)
heavy: B1 heavy with V2I, E46K, D62Q, D63G, K65T
light: B1 light with V48L, P80S
notes: human Ig kappa; also called L1-5/HA4
B15: humanized antibody No. 142 (antibody, human IgG2)
heavy: B1 heavy with E46K
light: B1 light
notes: human Ig kappa; also called L1-4/HK2
B16: humanized antibody No. 154 (antibody, human IgG2)
heavy: B1 heavy
light: B1 light with V48L, P80S
notes: human Ig kappa; also called L1-5/HK1
B17: humanized antibody No. 155 (antibody, human IgG2)
heavy: B1 heavy with V2I, E46K
light: B1 light with V48L, P80S
notes: human Ig kappa; also called L1-5/HK4

What follows are binders tested against T1, human EphA7 extracellular … (assay: ELISA).

A450 as % of hEphA4-SEAP-His [%] | Binder
5.3 | B1
5.1 | B2
5.6 | B3
5.7 | B4
5.6 | B5
6.3 | B6
5.8 | B7
6 | B8
5.5 | B9
4.5 | B10
6.3 | B11
6.1 | B12
6.2 | B13
6.8 | B14
5.5 | B15
6.3 | B16
5.6 | B17

What follows are binders tested against T2, human EphB1 extracellular … (assay: ELISA).

A450 as % of hEphA4-SEAP-His [%] | Binder
5.4 | B1
5.1 | B2
5.4 | B3
5.9 | B4
5.7 | B5
6.5 | B6
5.9 | B7
6.1 | B8
5.3 | B9
4.8 | B10
6.2 | B11
6.1 | B12
6 | B13
6.8 | B14
5.6 | B15
6.3 | B16
5.4 | B17

These binders were tested against T3, human EphB4 extracellular … (assay: ELISA).

A450 as % of hEphA4-SEAP-His [%] | Binder
5.4 | B1
5.1 | B2
5.6 | B3
5.9 | B4
5.7 | B5
6.7 | B6
5.9 | B7
6.5 | B8
5.4 | B9
4.8 | B10
6.5 | B11
6.3 | B12
6 | B13
7.4 | B14
5.7 | B15
6.4 | B16
5.7 | B17

The binders below were run against T4, human EphB6 extracellular … (assay: ELISA).

A450 as % of hEphA4-SEAP-His [%] | Binder
5.4 | B1
5.2 | B2
5.7 | B3
5.9 | B4
5.9 | B5
6.6 | B6
5.6 | B7
6.3 | B8
5.5 | B9
4.7 | B10
6.3 | B11
6.2 | B12
6.2 | B13
7.1 | B14
5.6 | B15
6.4 | B16
5.6 | B17
